Test results published in publication PMC5854669, “Zinc knuckle of TAF1 is a DNA binding module critical for TFIID promoter occupancy”.

Legend:
[1] = molecular target: T1, TAF1 ZnD charge mutant (Homo sapiens, UniProt P21675 1256-1303, R1295A;K1298A); test: BLI; BLI: 10 mM HEPES pH 7.9, 5 mM MgCl2, 100 mM NaCl, 10% glycerol, 0.1% ovalbumin, 0.2 mM dI:dC, 30 °C; EMSA: 10 mM HEPES pH 7.9, 5 mM MgCl2, 100 mM NaCl, 10% glycerol, 20 mM tetrasodium pyrophosphate (so in the source), 0.2 mM dI:dC, 25 °C; settings: protein: recombinant; tags: His-GB1; label: 5'-biotin (BLI); 5'-32P (EMSA); blunt
T1 chain: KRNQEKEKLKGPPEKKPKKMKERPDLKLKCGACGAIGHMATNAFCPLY

[2] = molecular target: T2, TAF1 ZnC cysteine mutant (Homo sapiens, UniProt P21675 1234-1303, C1285A;C1288A); test: as above; settings: protein: recombinant; tags: His-GB1; label: 5'-biotin (BLI); 5'-32P (EMSA); blunt
T2 sequence: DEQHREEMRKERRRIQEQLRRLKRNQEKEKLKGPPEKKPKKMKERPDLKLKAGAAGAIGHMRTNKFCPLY

[3] = molecular target: T3, TAF1 ZnD cysteine mutant (Homo sapiens, UniProt P21675 1256-1303, C1285A;C1288A); test: as above; settings: protein: recombinant; tags: His-GB1; label: 5'-biotin (BLI); 5'-32P (EMSA); blunt
T3 chain: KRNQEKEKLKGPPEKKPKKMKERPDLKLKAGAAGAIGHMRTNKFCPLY

[4] = molecular target: T4, TAF1 ZnC (Homo sapiens, UniProt P21675 1234-1303); test: BLI; 0.2 mM dI:dC, 5 mM Mg2+; BLI: 10 mM HEPES pH 7.9, 5 mM MgCl2, 100 mM NaCl, 10% glycerol, 0.1% ovalbumin, 0.2 mM dI:dC, 30 °C; EMSA: 10 mM HEPES pH 7.9, 5 mM MgCl2, 100 mM NaCl, 10% glycerol, 20 mM tetrasodium pyrophosphate (so in the source), 0.2 mM dI:dC, 25 °C; settings: protein: recombinant; tags: His-GB1; label: 5'-biotin (BLI); 5'-32P (EMSA); blunt
T4 sequence: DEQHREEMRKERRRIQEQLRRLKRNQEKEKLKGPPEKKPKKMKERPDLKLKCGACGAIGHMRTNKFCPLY

[5] = molecular target: T5, TAF1 ZnD (Homo sapiens, UniProt P21675 1256-1303); test: as above; settings: protein: recombinant; tags: His-GB1; label: 5'-biotin (BLI); 5'-32P (EMSA); blunt
T5 chain: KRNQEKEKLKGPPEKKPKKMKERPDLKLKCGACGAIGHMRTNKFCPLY

[6] = molecular target: T6, TAF1 ZnA (Homo sapiens, UniProt P21675 1234-1371); test: as above; settings: protein: recombinant; EMSA/proteolysis: tag removed by TEV; label: 5'-biotin (BLI); 5'-32P (EMSA); blunt
T6 sequence: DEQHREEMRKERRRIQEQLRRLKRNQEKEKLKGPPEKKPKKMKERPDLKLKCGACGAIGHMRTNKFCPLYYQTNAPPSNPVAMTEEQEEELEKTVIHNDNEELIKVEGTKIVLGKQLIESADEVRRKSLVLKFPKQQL

B1: IMD (Inr, MTE, DPE of super core promoter) (dsDNA)
DNA 1: GTCCTCAGTCGCGATCGAACACTCGAGCCGAGCAGACGTGCCTA
DNA 2: TAGGCACGTCTGCTCGGCTCGAGTGTTCGATCGCGACTGAGGAC
[1]
  binding result: no binding
[2]
  binding result: no binding
[3]
  binding result: no binding
[4]
  Kd: 343 ± 42 nM
[5]
  Kd: 503 ± 67 nM
[6]
  Kd: 288 ± 46 nM

B2: Random DNA (dsDNA)
DNA 1: GAATGTCGCGAAGGCAGCGTTCGCGAAGACAGCAAAGAAG
DNA 2: CTTCTTTGCTGTCTTCGCGAACGCTGCCTTCGCGACATTC
[6]
  Kd: 1010 ± 228 nM

B3: CD1P (cyclin D1 core promoter) (dsDNA)
DNA 1: AGGGGAGTTTTGTTGAAGTTGCAAAGTCCTGGAGCCTCCAGAGGGCTGTCG
DNA 2: CGACAGCCCTCTGGAGGCTCCAGGACTTTGCAACTTCAACAAAACTCCCCT
[6]
  Kd: 411 ± 101 nM
